In patent US20080206140A1:

Molecular target: Ab126 antibody
Assay: direct competition ELISA: 0.1 µg recombinant PCNA on plate, peptide UMPB6 (0.024-2400 ng/well) mixed with Ab126, anti-rabbit IgG-AP, OD 405 nm

B1: antigenic peptide UMPB6 (equivalent to PCNA amino acids 126-133) (peptide)
peptide: LGIPEQEY
B1 showed an IC50 of 0.1 µg/mL.
